This assay has as its target BACE1-GFP (UniProt P56817). Description: co-IP.

The values below come from doi:10.1101/2021.06.09.447716.

Sequence of UniProt P56817 (P56817 46-501): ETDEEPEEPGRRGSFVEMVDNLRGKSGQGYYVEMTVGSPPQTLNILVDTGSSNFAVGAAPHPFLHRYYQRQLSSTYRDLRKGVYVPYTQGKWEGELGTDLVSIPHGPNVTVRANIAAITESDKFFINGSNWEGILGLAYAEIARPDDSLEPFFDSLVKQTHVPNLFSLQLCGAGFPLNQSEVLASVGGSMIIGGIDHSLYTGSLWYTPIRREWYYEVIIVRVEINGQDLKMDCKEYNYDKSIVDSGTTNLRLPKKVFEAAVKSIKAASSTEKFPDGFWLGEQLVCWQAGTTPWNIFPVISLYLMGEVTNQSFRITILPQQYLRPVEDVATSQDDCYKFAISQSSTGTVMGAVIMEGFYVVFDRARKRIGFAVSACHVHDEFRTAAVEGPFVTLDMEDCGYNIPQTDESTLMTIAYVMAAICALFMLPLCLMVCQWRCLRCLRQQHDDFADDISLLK

In turn, “Bin1-KR (neuronal Bin1-MYC with the LOAD mutation K358R, rs138047593) (from UniProt O08539-1 1-588) (natural protein)” returned a reduction of co-immunoprecipitated Bin1 against Bin1-WT of 65%.
